# Residue numbers refer to the chain shown, from its start.
# T1: CD123-Fc recombinant protein (human, UniProt P26951 19-305)
# T1 construct: Soluble staining reagent; also called CD123-Fc protein; not shown: Fc part
# T1 sequence (looked up): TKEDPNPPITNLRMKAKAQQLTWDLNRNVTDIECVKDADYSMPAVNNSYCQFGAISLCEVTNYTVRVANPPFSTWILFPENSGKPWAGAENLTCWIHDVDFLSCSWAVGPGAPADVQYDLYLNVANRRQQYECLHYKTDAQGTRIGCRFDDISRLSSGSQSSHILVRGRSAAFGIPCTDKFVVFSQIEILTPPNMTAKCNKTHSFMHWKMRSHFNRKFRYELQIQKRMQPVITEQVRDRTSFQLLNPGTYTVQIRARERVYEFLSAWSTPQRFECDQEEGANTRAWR
# B1: anti-CD123 scFv-C6 (scFv)
# scFv: SYELTQPPSVSVSPGQTARIPCSGADLGDQYVSWYQHQPGQSPLLVIYEDDKRPSGIPERFSGSNSGNTATLTISGTQAMDEADYYCQAWDGNAAIFGGGTKLTVLGGGGSGGGGSGGGGSQVQLVQSGGGSVQPGGSLRLSCAASGFTFTRYSMNWVRQAPGKGLEWVSYISSSSSTIYYADSVKGRFTISRDNAKNSLYLQMNSLRDEDTAVYYCARDGYGGNSDYYGMDVWGQGTTVTVSS
# notes: also called C6 scFv
# B2: anti-CD123 scFv-C24 (scFv)
# scFv: DIQMTQSPSSLSASVGDRVTITCRASQSISSYLNWYQQKPGKAPKLLIHAASSLQSGVPSKFSGSGSGTDFTLTISSLQPEDFATYYCLQYKTYPYTFGPGTKVEIKGGGGSGGGGSGGGGSQVQLVQSGAEVKKPGSSVKVSCKASGGTFSSYAISWVRQAPGQGLEWMGGIIPIFGTANYAQKFQGRVTITADESTSTAYMELSSLRSEDTAVYYCARDSPSGSTNYYYYYMDVWGKGTTVTVSS
# notes: also called C24 scFv
# B3: anti-CD123 scFv-C14 (scFv)
# scFv: DIRMTQSPSSLSASVGDRVTITCQASQDITNYLNWYHQKPGKAPKLLIYDASNLETGVPSRFSGGGSGTDFTFTISSLQSEDIGTYYCQQYDDLPLTFGGGTKVEIKGGGGSGGGGSGGGGSQVQLQESGPGLVKPSETLSLTCTVSGGSISSSSHYWGWIRQPPGKGLEWIGSIYYSGSTYYNPSLKSRVTISVDTSKNQFSLKLSSVTAADTAVYYCARRVWVWPTYGMDVWGQGTTVTVSS
# notes: also called C14 scFv
# B4: anti-CD123 scFv-C5 (scFv)
# scFv: NFMLTQPHSVSESPGKTVTLSCTRSSGSIAGSYVQWYQQRPGSSPTTVIFQDNQRPSGVPDRFSGSIDKSSNSASLTISGLKTEDEADYYCQSYDSNNQVFGGGTKLTVLGGGGSGGGGSGGGGSEVHLVESGGGVVRPGGSLRLSCAASGFTFGDYGMSWVRQAPGKGLEWVSGINWNGGRTGYADSVKGRFTISRDNAKNSLYLQMNSLRAEDTALYYCARARGSGSYFGYMDVWGKGTTVTVSS
# notes: also called C5 scFv; C5 CAR
# B5: anti-CD123 scFv-C13 (scFv)
# scFv: DVVMTQTPLSLPVTLGQPASISCRSSQGLVFSDGVTYLNWFQQRPGQSPRRLIYKVSNRDSGVPDRFSGSGSGTDFTLKISRVEAEDVGIYYCMQGTHWPHTFGQGTKLEIKGGGGSGGGGSGGGGSEVQLVESGGGLVKPGGSLRLSCAASGFTFSSYSMNWVRQAPGKGLEWVAFISHDASKKFYADSVKGRFTLSRDNSKNTLYLEMNSLGAEDTALYYCGRDRNWGFSDFWGQGTLVTVSS
# notes: also called C13 scFv
# B6: anti-CD123 scFv-C16 (scFv)
# scFv: QSVVTQPPSASGTPGQRVTISCSGSSSNIEGNTVSWYQQFPGAAPKLLIYSNSYRASGVPDRFSGSKSGTSASLAISELQSEDEADYYCSAWDDSLNGPVFGGGTELTVLGGGGSGGGGSGGGGSQVQLQESGGGLVQPGGSLRLSCAASGFTFSSYSMNWVRQAPGKGLEWVSYISSSSSTIYYADSVKGRFTISRDNAKNSLYLQMNSLRAEDTAVYYCARDIYGDWDYYYYGMDVWGQGTTVTVSS
# notes: also called C16 scFv
# B7: anti-CD123 scFv-C18 (scFv)
# scFv: QSALTQPASVSGSPGQSITISCTGTSSDVGGYNYVSWYQQHPGKAPKLMIYDVSNRPSGVSNRFSGSKSGNTASLTISGLQAEDEADYYCSSYTSSSTLFVFGTGTELTVLGGGGSGGGGSGGGGSQVQLQESGPGLVKPSQTLSLTCTVSGGSISSGDYYWSWIRQSPGKGLEWIGYIHSTGTTYYNPSLKSRLTISLDTSKNQFSLKLNSVTAADTAVYYCARGGVGTIFNYWGQGTLVTVSS
# notes: also called C18 scFv
# B8: anti-CD123 scFv-C15 (scFv)
# scFv: DIQLTQSPSTLSASVGDRVTISCRASQSISSWLAWYQHKPGKAPKLLIYKTSALEDGVPSRFSGSGSGTEFTLTISSLQPDDFATYFCLHYGSYTFGQGTKVDIKGGGGSGGGGSGGGGSEVQLVESGGGLVNPGGSLRLSCEASGFTFSDYYISWIRQAPGKGLEWISYISGSSTYTDFADSVKGRFTISRDNAKNTVFLQMNSLRAEDTAVYYCARDRRGRFDPWGQGTLVTVSS
# notes: also called C15 scFv
# B9: anti-CD123 scFv-C9 (scFv)
# scFv: QSVLTQPPSASGTPGQRVTISCSGSNSNIENNYVYWYQHLPGTAPKRLIYQNNQRPSGVPDRFSGSKSGTSASLAISGLRSEDEADYYCSAWDDSLSAWVFGGGTELTVLGGGGSGGGGSGGGGSEVHLVESGGGLVQPGRSLRLSCTASGFTFGDYAMNWVRQAPGKGLEWVGFIRSKASGGTTDYAASVKGRFTISRDDSKSIAYLQMNSLKTEDTAVYYCTRALRGYSYGLFDYWGQGTLVTVSS
# notes: also called C9 scFv
# B10: anti-CD123 scFv-C10 (scFv)
# scFv: SYELTQPPSVSVAPGKTARITCGGNNIGSKSVHWYQQKPGQAPVLVVYDDSDRPSGIPERFSGSNSGNTATLTISRVEAGDEADYYCQVWDSSSDHWVFGGGTKLTVLGGGGSGGGGSGGGGSQVQLVQSGAEVKKPGSSVKVSCKASGGTFSSYAISWVRQAPGQGLEWMGGIIPIFGTANYAQKFQGRVTITADESTSTAYMELSSLRSEDTAVYYCAREKWGYYGDYYYGMDVWGQGTTVTVSS
# notes: also called C10 scFv
# B11: anti-CD123 scFv-C1 (scFv)
# scFv: QSALTQPASVSGSPGQSITISCTGTSSDIGAYNYVSWYQQHPGKAPKLIIYDVSHRPSGVSNRFSGSKSGNTASLTISGLQSEDEADYYCSSDTNNNTLVFGVGTKLTVLGGGGSGGGGSGGGGSEVHLVESGGGVVQPGRSLRLSCAASGFTFSSYGMHWVRQAPGKGLEWVAVIWYDGSNKYYADSVKGRFTISRDNSKNTLYLQMNSLRAEDTAVYYCARDRDGFFLPMYYFDYWGQGTLVTVSS
# notes: also called C1 scFv
# B12: anti-CD123 scFv-C11 (scFv)
# scFv: QSVVTQPPSASGTPGQRVTISCSGSSSNIGSNYVYWYQQLPGTAPKLLIYRNNQRPSGVPDRFSGSKSGTSASLAISGLRSEDEADYYCAAWDDSLSGYVFGTGTKLTVLGGGGSGGGGSGGGGSEVQLVESGGGLVQPGRSLRLSCTASGFTFGDYAMSWVRQAPGKGLEWVGFIRSKAYGGTTEYAASVKGRFTISRDDSKSIAYLQMNSLKTEDTAVYYCTRDIGYYGSGSYSPFDYWGQGTLVTVSS
# notes: also called C11 scFv; C11 CAR
# B13: anti-CD123 scFv-C29 (scFv)
# scFv: B12 scFv with S2P, V4L, L107V, Q128H
# notes: also called C29 scFv
# B14: anti-CD123 scFv-C19 (scFv)
# scFv: DIRMTQSPSSLSASVGDRVTITCRASQDIRHDLGWYQQKPGKAPSLLMYATSTLQSGVPSRFSGSGSGTHFTLTISSLKPEDSATYYCLQDGDYPLTFGGGTKLEIKGGGGSGGGGSGGGGSQVQLVQSGGGVVQPGRSLRLSCAASGFTFSSYGMHWVRQAPGKGLEWVAVISYDGSNKYYADSVKGRFTISRDNSKNTLYLQMNSLRAEDTAVYYCAKDPSLIQYYYYGMDVWGQGTMVTVSS
# notes: also called C19 scFv
# B15: anti-CD123 scFv-C23 (scFv)
# scFv: DILMTQSPSSLSASVGDRVTITCQASQDISNYLNWYQQKPGKAPKLLIYDASNLETGVPSRFSGSGSGTGFSFTISSLQPEDFATYYCQQYGNLPLTFGGGTKLEIKGGGGSGGGGSGGGGSQVQLVQSGAEVKKPGASVKVSCKASGYTFTSYGISWVRQAPGQGLEWMGWISAYNGNTNYAQKLQGRVTMTTDTSTSTAYMELRSLRSDDTAVYYCARDRIAAAEVYYYYGMDVWGQGTTVTVSS
# notes: also called C23 scFv
# B16: anti-CD123 scFv-C2 (scFv)
# scFv: QSVVTQPPSVSAAPGQKVTISCSGSSSNIGNNYVSWYQQFPGTAPKLLIYDNNKRPSGIPDRFSGSKSGTSGTLGITGLQTGDEADYYCVTWDTSLSAGVFGGGTKLTVLGGGGSGGGGSGGGGSQITLKESGGGLVKPGGSLRLSCAASGFTFSNAWMSWVRQAPGKGLEWVGRIKSKTDGGTTDYAAPVKGRFTISRDDSKNTLYLQMNSLKTEDTAVYYCTTDPHGYYYGMDVWGQGTTVTVSS
# notes: also called C2 scFv
# B17: anti-CD123 scFv-C3 (scFv)
# scFv: AIQMTQSPSSLSASVGDRVTITCRASQGIGTYLAWFQQKPGKAPKSLIYAASNLQSGVPSKFSGSGSGTDFTLTISNLQPEDFATYYCQQYKGYPLTFGGGTKLEIKGGGGSGGGGSGGGGSQVQLVQSGAEVKKPGSSVKVSCKASGGTFSSYAISWVRQAPGQGLEWMGGIIPIFGTANYAQKFQGRVTITADESTSTAYMELSSLRSEDTAVYYCARDSGWFGPRYYFDYWGQGTLVTVSS
# notes: also called C3 scFv
# B18: anti-CD123 scFv-C4 (scFv)
# scFv: QSALTQPPSASGTPGQRVTISCSGSSSNIGSNYVNWYQQLPGTAPKLLIYRNNQRPSGVPDRFSGSKSGTSASLAISGLRSEDEADYYCAAWDDSLSGHGVFGTGTELTVLGGGGSGGGGSGGGGSQVQLVQSGPEVKKPGASVKVSCKASGYDFIRYYMNWVRQAPGQGPEWMGAIDPSDGDTTYGQKFQGRVTLTRDTFTSTVYMELSSLRSEDTAVYYCARDWELTNSYGLDVWGQGTTVTVSS
# notes: also called C4 scFv
# B19: anti-CD123 scFv-C21 (scFv)
# scFv: QSVLTQPPSASGTPGQRVTISCSGSSSNVGGNPVYWYRQVPTAAPKLLVYGHNQRPPRDPDRFSGSKSGTSASLAISGLRSEDEADYYCAAWDDSLSGWVFGGGTELTVLGGGGSGGGGSGGGGSEVQLVESGGGLVQPGRSLRLSCAASGFTFDDYAMHWVRQAPGKGLEWVSGISWNSGSIGYADSVKGRFTISRDNAKNSLYLQMNSLRAEDTALYYCAKGRYVDIVATINDAFDIWGQGTMVTVSS
# notes: also called C21 scFv
# B20: anti-CD123 scFv-C26 (scFv)
# scFv: QSVLTQPPSASGTPGQRVTISCSGSRSNIGSNTVSWYQQFPGTAPKLLIYLNNQRPSGVPDRFSGSKSGTSASLAISGLQSEDEAEYYCATWDDDLNGVFGGGTKLTVLGGGGSGGGGSGGGGSEVQLVESGGGLVQPGGSLRLSCAASGFTLSNFEMNWVRQAPGRGLEWVSYISATTSATSYADSVKGRFTISRDNAKNSLYLQMNSLRAEDTAVYYCARVRDGYNFGYYYYYMDVWGKGTTVTVSS
# notes: also called C26 scFv
# Molecular target: T1, CD123-Fc recombinant protein
# Assay: FACS staining of CAR-T cells with CD123-Fc recombinant protein (FIG. 28)
row,binding result,Binder
1,binds,B1
2,binds,B2
3,binds,B3
4,binds,B4
5,binds,B5
6,binds,B6
7,binds,B7
8,binds,B8
9,binds,B9
10,binds,B10
11,binds,B11
12,binds,B12
13,binds,B13
14,binds,B14
15,binds,B15
16,binds,B16
17,binds,B17
18,binds,B18
19,binds,B19
20,binds,B20
